The target in experiment [1] is BAT-1 antigen (human).
The target in experiment [2] is BAT-1 antigen (human). As to the kind of experiment: flow cytometry on non-activated human CD4+ T cells.
The target in experiment [3] is BAT-1 antigen (human). The experiment is described as follows: flow cytometry on non-adherent PBL of a normal donor.
In experiment [4] the target is BAT-1 antigen (human). The experiment is described as follows: flow cytometry on PBL of a prostate cancer patient, B cells.
Experiment [5] addresses BAT-1 antigen (human). As to the kind of experiment: flow cytometry on PBL of a prostate cancer patient, CD4+ cells.
Experiment [6] addresses BAT-1 antigen (human). As to the kind of experiment: flow cytometry on PBL of a prostate cancer patient, CD8+ cells.
Experiment [7] addresses BAT-1 antigen (human). As to the kind of experiment: flow cytometry on human PBL of a selected normal donor, hBAT+ CD4+ cells.
Experiment [8] has as its target BAT-1 antigen (human). The experiment is described as follows: flow cytometry on human PBL of a selected normal donor, hBAT+ CD8+ cells.
Experiment [9] concerns the target BAT-1 antigen (human). As to the kind of experiment: flow cytometry on non-adherent PBL of a normal donor, within CD19+ B cells.
Experiment [10] addresses BAT-1 antigen (human). The experiment is described as follows: flow cytometry on non-adherent PBL of a normal donor, within CD20+ B cells.
Experiment [11] has as its target BAT-1 antigen (human). As to the kind of experiment: flow cytometry on human PBL of normal donors, 4° C. 1 hr, gated lymphocytes.
For experiment [12], the target named is BAT-1 antigen (human). The source holds these as a separate data set.
For experiment [13], the target named is BAT-1 antigen (human). This is another data set of the same source.
Experiment [14] addresses BAT-1 antigen (human). The experiment is described as follows: flow cytometry on human PBL of a selected normal donor.
For experiment [15], the target named is BAT-1 antigen (human). The experiment is described as follows: flow cytometry on human PBL of a selected normal donor, within CD4+ cells.
In experiment [16] the target is BAT-1 antigen (human). The experiment is described as follows: flow cytometry on human PBL of a selected normal donor, within CD8+ cells.

Several values for one entry are separate records, joined by “and”; a condition that tells them apart may be missing. Equal entries are not always repeated. Where two headings read alike, the source gives them in different places.

For the molecule “humanized BATRHC/BATRκD γ1 mAb (antibody)”, in the experiment with BAT-1 antigen (human) [1], the IC50 stood at 10 µg/mL. Also, the % of CD4+ cells binding with BAT-1 antigen (human) [2] is 17% and 20%. For the same molecule, the % of lymphocytes positive with BAT-1 antigen (human) [3] is 25% and 29%. Moreover, the % of B cells bound with BAT-1 antigen (human) [4] stood at 68%. The % of CD4+ cells bound in the experiment with BAT-1 antigen (human) [5] came out at 39%. In the experiment with BAT-1 antigen (human) [6], this molecule gave a % of CD8+ cells bound of 60%. This molecule showed a % of PBL positive (CD4+ cells) with BAT-1 antigen (human) [7] of 25%. The molecule further displayed a % of PBL positive (CD8+ cells) with BAT-1 antigen (human) [8] of 15%. Further, the % of CD19+ cells positive with BAT-1 antigen (human) [9] was found to be 75%. The molecule further gave a % of CD20+ cells positive with BAT-1 antigen (human) [10] of 70%. In the experiment with BAT-1 antigen (human) [11], the % of cells binding was found to be 20%.

B1: humanized BATRHC/BATRκD γ1 mAb (antibody, V domains shown)
VH: QVQLVQSGSELKKPGASVKISCKASGYTFTNYGMNWVRQAPGQGLQWMGWINTDSGESTYAEEFKGRFVFSLDTSVNTAYLQITSLTAEDTGMYFCVRVGYDALDYWGQGTLVTVSS
VL: EIVLTQSPSSLSASVGDRVTITCSARSSVSYMHWFQQKPGKAPKLWIYRTSNLASGVPSRFSGSGSGTSYCLTINSLQPEDFATYYCQQRSSFPLTFGGGTKLEIK
B1: the Signal Strength with BAT-1 antigen (human) [12] is 0. Besides, the % of CD4+ cells binding with BAT-1 antigen (human) [13] was 52% and 77%; in the experiment with BAT-1 antigen (human) [15], 58%. Besides, the % of cells positive in the experiment with BAT-1 antigen (human) [14] is 50%. This molecule gave a % of CD8+ cells binding with BAT-1 antigen (human) [16] of 71%.
